Km, kcat and kcat/Km data for seven molecules are collected here from PMC6972931, “YqfB protein from Escherichia coli: an atypical amidohydrolase active towards N^4-acylcytosine derivatives” (Scientific Reports, 2020).

By kcat is commonly meant the number of substrate molecules converted per active site and unit of time at saturation. One may read the kcat/Km as the turnover number divided by the Michaelis constant.

Holding throughout (experiment): spectrophotometric hydrolysis assay, fit with product inhibition
Assay type in all cases: biochemical, Escherichia coli
Holding throughout (conditions): 50 mM potassium phosphate, pH 8.0, 22 °C

Series [1] concerns T1, CC(=O)Nc1ccn([C@@H]2O[C@H](CO)[C@@H](O)[C@H]2O)c(=O)n1.
T1 construct: full length (103 residues), C-terminal His6 kept, pET21b, expressed in E. coli BL21(DE3) yqfB::Km, monomer
The text has this:
(§1) spectrophotometric hydrolysis assay, fit with product inhibition on YqfB with a C-terminal His6 tag

For a further series, the system named is T2, CC(=O)Nc1cc[nH]c(=O)n1.
T2 construct: full length (103 residues), C-terminal His6 kept, pET21b, expressed in E. coli BL21(DE3) yqfB::Km, monomer
Excerpt: as §1

Substrate in series [2]: CC(=O)Nc1nc(O)ncc1F
Excerpt: as §1

Substrate in series [3]: CCCCCOC(=O)Nc1nc(=O)n([C@@H]2O[C@H](C)[C@@H](O)[C@H]2O)cc1F
Excerpt: as §1

Substrate in series [4]: CC(=O)Nc1cc[nH]c(=O)n1
Excerpt: as §1

Substrate in series [5]: CC(=O)Nc1ccn([C@H]2C[C@H](O)[C@@H](CO)O2)c(=O)n1
Excerpt: as §1

Substrate in series [6]: CC(C)C(=O)Nc1ccn([C@H]2C[C@H](O)[C@@H](CO)O2)c(=O)n1
Excerpt: as §1

Substrate in series [7]: O=C(Nc1ccn([C@@H]2O[C@H](CO)[C@@H](O)[C@H]2O)c(=O)n1)c1ccccc1
Excerpt: as §1

Substrate in series [8]: CCCCCC(=O)Nc1ccn([C@H]2C[C@H](O)[C@@H](CO)O2)c(=O)n1
Excerpt: as §1

Substrate in series [9]: O=C(Nc1ccn([C@H]2C[C@H](O)[C@@H](CO)O2)c(=O)n1)c1ccccc1
Excerpt: as §1

Substrate in series [10]: CC(=O)Nc1ccn([C@@H]2O[C@H](CO)[C@@H](O)[C@H]2O)c(=O)n1
Excerpt: as §1

Substrate in series [11]: CC(=O)Nc1ccn([C@@H]2O[C@H](CO)[C@@H](O)[C@H]2O)c(=O)n1
The text has this: spectrophotometric hydrolysis assay, fit with product inhibition on recombinant YqfB with an N-terminal His6 tag
The source holds these as a separate data set.

Substrate in series [12]: CC(=O)Nc1ccn([C@@H]2O[C@H](CO)[C@@H](O)[C@H]2O)c(=O)n1
The text has this: spectrophotometric hydrolysis assay, fit with product inhibition on recombinant wild-type YqfB (tag-free)
The source holds these as a separate data set.

For the molecule “YqfB with a C-terminal His6 tag (Escherichia coli K-12; H70A)”, in series [1], the Km result is listed as “(5.0 ± 0.02) × 10^−5 M”, the catalytic constant (kcat) worked out at 23 ± 0.029 s⁻¹ and the kcat/Km came to 400000 ± 2000 M⁻¹ s⁻¹.

Regarding “YqfB with a C-terminal His6 tag (Escherichia coli K-12; Y89A)”, in series [1], the Km result is “(2.2 ± 0.06) × 10^−3 M”, the kcat turned out to be 40 ± 1.3 s⁻¹ and the kcat/Km turned out to be 19000 ± 900 M⁻¹ s⁻¹.

Turning to “YqfB with a C-terminal His6 tag (Escherichia coli K-12; D27A)”, in series [1], the Km result is given as “(2.9 ± 0.11) × 10^−4 M”, the catalytic constant (kcat) was 300 ± 16 s⁻¹ and the kcat/Km is 1.2e+06 ± 10000 M⁻¹ s⁻¹.

For the molecule “YqfB with a C-terminal His6 tag (Escherichia coli K-12; E74A)”, in series [1], the Km result is recorded as “(2.0 ± 0.03) × 10^−6 M”, the kcat came to 0.07 ± 0.0006 s⁻¹ and the kcat/Km turned out to be 30000 ± 500 M⁻¹ s⁻¹. Further, in the series with CC(=O)Nc1cc[nH]c(=O)n1, the Km result is recorded as “(3.0 ± 0.02) × 10^−4 M”, the kcat turned out to be 0.22 ± 0.001 s⁻¹ and the kcat/Km amounted to 700 ± 4 M⁻¹ s⁻¹.

B1: YqfB with a C-terminal His6 tag (Escherichia coli K-12) (protein)
chain: MQPNDITFFQRFQDDILAGRKTITIRDESESHFKTGDVLRVGRFEDDGYFCTIEVTATSTVTLDTLTEKHAEQENMTLTELKKVIADIYPGQTQFYVIEFKCL
notes: full length (103 residues), C-terminal His6 kept, pET21b, expressed in E. coli BL21(DE3) yqfB::Km, monomer
Turning to B1, the Km entry was “(2.1 ± 0.2) × 10^−3 M” in series [2]; “(7.0 ± 0.2) × 10^−4 M” in series [3]; “(7.0 ± 0.2) × 10^−5 M” in series [4]; “(4.00 ± 0.04) × 10^−4 M” in series [5]; “(1.9 ± 0.08) × 10^−3 M” in [6]; “(5.1 ± 0.03) × 10^−3 M” in [7]. For the same molecule, the Km result in series [8] was “(1.4 ± 0.1) × 10^−4 M”; in series [9], “(3.00 ± 0.01) × 10^−4 M”; in series [10], “(6.2 ± 0.1) × 10^−5 M”. In addition, the catalytic constant (kcat) in [2] was 90 ± 7 s⁻¹; in series [3], 0.016 ± 0.003 s⁻¹; in series [5], 101 ± 1 s⁻¹; in [6] it was 75 ± 3 s⁻¹; in [9], 0.07 ± 0.01 s⁻¹; in series [10], 157 ± 1 s⁻¹. Besides, the catalytic efficiency (kcat/Km) turned out to be 40000 ± 3000 M⁻¹ s⁻¹ in [2]; 22 ± 0.1 M⁻¹ s⁻¹ in series [3]; 230000 ± 2000 M⁻¹ s⁻¹ in series [5]; 37500 ± 600 M⁻¹ s⁻¹ in [6]; 230 ± 10 M⁻¹ s⁻¹ in series [9]; 2.2e+06 ± 100000 M⁻¹ s⁻¹ in series [10].

B2: recombinant YqfB with an N-terminal His6 tag (Escherichia coli K-12) (protein)
chain: B1 chain
notes: full length (103 residues), N-terminal His6 kept, pETDuet-1, expressed in E. coli BL21(DE3) yqfB::Km
In the case of B2, in series [11], the Km entry was “(7.0 ± 0.1) × 10^−5 M”, the kcat worked out at 154 ± 3 s⁻¹ and the specificity constant (kcat/Km) came to 2.5e+06 ± 200000 M⁻¹ s⁻¹.

B3: recombinant wild-type YqfB (tag-free) (Escherichia coli K-12) (protein)
chain: B1 chain
notes: full length (103 residues), no tag, pET21b-yqfB
As for B3, in [12], the Km result is listed as “(7.0 ± 0.1) × 10^−5 M”, the catalytic constant (kcat) came to 196 ± 1 s⁻¹ and the specificity constant (kcat/Km) worked out at 2.8e+06 ± 300000 M⁻¹ s⁻¹.
